Measured values from the supplement of paper PMC11780869.

Test system: Bacillus subtilis
Experiment: cleaved RNA product abundance (RNA/gDNA barcode ratio) relative to median wild-type variant (ratio to wild type); higher = more accumulation of the downstream cleavage product
Procedure, shortened: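 B. subtilis strains with chromosomally integrated reporter mRNAs (truncated aprE or tetM) holding barcoded, mutagenized RNase Y cleavage-site windows grew in LB at 37°C from OD600 0.0003 to 0.3. Cleaved product abundance is each construct's RNA:gDNA barcode ratio, scaled to the median construct with the unmutated site. It came from sequencing barcodes of gel-selected, reverse-transcribed cleaved RNA and of genomic DNA.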

[1] = experiment (reporter, strain, medium): exp 4a: truncated aprE reporter, strain BJT201 with 2% xylose (RNase J1 expressed), cleavage site: cggR-gapA (positions -7 to +36 mutated)
[2] = experiment (reporter, strain, medium): exp 8a: truncated aprE reporter, strain BJT201 with 2% xylose (RNase J1 expressed), cleavage site: glnRA (positions -5 to +31 mutated)
[3] = experiment (reporter, strain, medium): exp 2b: truncated aprE reporter, strain BJT200, cleavage site: cggR-gapA (positions -7 to +36 mutated)
[4] = experiment (reporter, strain, medium): exp 6: tetM reporter, strain 168, cleavage site: cggR-gapA (positions -7 to +36 mutated)

Sequence | cleaved RNA product abundance [1] | cleaved RNA product abundance [3] | other results
ACAGACGAAGGAGCCGCAAAGAAGTTATTAAGGCATGAATAATCCCTCAGTATAAATATCTCTCACTTATTTAAA | 0.0715 |  | 
CGACATGTCCCGCTTCTTTCATTAATCCGTTAGCAATTGTTTTGCTAAATACATTTACCTTTTAAGAGGAGGAAT |  |  | cleaved RNA product abundance [2]: 0.342
CGACATGTCCCGCTTCTTTCATTAATCCGTTAGCAACTGTATTGCAATATACATTTACCTTTTAAGAGGAGGAAT |  |  | cleaved RNA product abundance [2]: 0.678
ACAGACGAAGGAGCCGCAAAGAAGTTATTAAGTGATGAATAAACCCTCAATATAAATATCTCTCACTTATTTAAA | 0.0945 | 0.113 | 
ACAGACGAAGGAGCCGCAAAGAAGTTATTAAGGGATGATTAATGCCTCAATATAAATATCTCTCACTTATTTAAA |  | 0.117 | 
CGACATGTCCCGCTTCTTTCATTAATCCGATAGCAACTGTTTTGCTATATACATTTACCTTTTAAGAGGAGGAAT |  |  | cleaved RNA product abundance [2]: 0.795
CGACATGTCCCGCTTCTTTCATTAATCCGTTAGGAACTGTTTTGCTATAAACATTTACCTTTTAAGAGGAGGAAT |  |  | cleaved RNA product abundance [2]: 0.289
CGACATGTCCCGCTTCTTTCATTAATCCGTTAGCAACTGTTTTGATATATACATCTACCTTTTAAGAGGAGGAAT |  |  | cleaved RNA product abundance [2]: 0.44
ACAGACGAAGGAGCCGCAGAGAAGTTATTAAGGGATGAATAATCCCTAAATATAAATATCTCTCACTTATTTAAA | 0.755 |  | 
ACAGACGAAGGAGCCGCAAAGAAGTAATTAAGGGATGAATAATCCTTCAATATAAATATCTCTCACTTATTTAAA | 0.187 | 0.188 | 
ACAGACGAAGGAGCCGCAAAGAAGATATTAAGGGATGAATAATCCCTGAATATAAATATCTCTCACTTATTTAAA | 0.583 |  | 
ACAGACGAAGGAGCCGCAAAGAAGTTATTAACGGATGAATAATCCCTCAATATAAATATCTCTCACTTATTAAAG | 0.172 |  | 
CGACATGTCCCGCTTCTTTCATTATTCCGTTAGCAACTGGTTTGCTATATACATTTACCTTTTAAGAGGAGGAAT |  |  | cleaved RNA product abundance [2]: 1.54
ACAGACGAAGGAGCCGCAAAGAAGTTATTAATGGATGAATAATCCCACAATATAAATATCTCTCACTTATTTAAA | 0.156 | 0.0949 | 
ACAGACGAAGGAGCCGCAAAGAAGTTATAAAGGGATGAATAATCCCTCCATATAAATATCTCTCACTTATTTAAA | 0.266 |  | 
CGACATGTCCCGCTTCTTTCATTAATACGTTAGCTACTGTTTTGCTATATACATTTACCTTTTAAGAGGAGGAAT |  |  | cleaved RNA product abundance [2]: 0.562
ACAGACGAAGGAGCCGCAAAGAAGTTATAAAGGGATGAATAAACCCTCAATATAAATATCTCTCACTTATTTAAA | 0.197 | 0.145 | 
ACAGACGAAGGAGCCGCATAGAAGTTATTAACGGATGAATAATCCCTCAATATAAATATCTCTCACTTATTTAAA | 0.193 |  | 
CGACATGTCCCGCTTCTTTCATTAATCTGTTAGCAACTGTTTTGCTATATACATCTACCTTTTAAGAGGAGGAAT |  |  | cleaved RNA product abundance [2]: 0.993
ACAGACGAAGGAGCCGCAAAGAAGTTATTAAGGCATGAATATTCCCTCAATATAAATATCTCTCACTTATTTAAA | 0.144 | 0.119 | 

Sequence | cleaved RNA product abundance [1] | cleaved RNA product abundance [3] | other results
ACAGACGAAGGAGCCGCAAAGAAGTTACTAAGGGATGAATAATCCCTAAATATAAATATCTCTCACTTATTTAAA | 0.253 |  | 
ACAGACGAAGGAGCCGCAAAGAAGTCTTTAAGGGATGAATAATCCCTCAATATAAATATCTCTCACTTATTTAAA | 0.181 |  | 
ACAGACGAAGGAGCCGCAAAGAAGTTATTAAGGGATGAATAATCCCTCAATATAAAATATCTCTCACTTATTTAA |  | 0.806 | 
ACAGACGAAGGAGCCGCAAAGATGTTATTAAGGGATGAATATTCCCTCAATATAAATATCTCTCACTTATTTAAA | 0.556 | 0.623 | 
ACAGACGAAGGAGCCGCAAAGAAGTTATTAAGGCATAAATAATCCCTCAATATAAATATCTCTCACTTATTTAAA | 0.107 | 0.0865 | 
ACAGACGAAGGAGCCGCAAAGAGGTTATTAAGCGATGAATAATCCCTCAATATAAATATCTCTCACTTATTTAAA | 0.0624 |  | 
ACAGACGAAGGAGCCGCAAAGAAGGTATTAAGAGATGAATAATCCCTCAATATAAATATCTCTCACTTATTTAAA | 0.171 |  | 
ACAGACGAAGGAGCCGCAAATTAGTTATTAAGGGATGAAAAATCCCTCAATATAAATATCTCTCACTTATTTAAA | 0.655 |  | 
ACAGACGAAGGAGCCGCAAATAAGTTATTAAGGGATGAAAAATCCCTCAATATAAATATCTCTCACTTATTTAAA | 0.841 | 0.805 | cleaved RNA product abundance [4]: 0.882
CGACATGTCCCGCTTCTTTCATTAATCCGTTATCAACTGTTTTGATATATACATTTACCTTTTAAGAGGAGGAAT |  |  | cleaved RNA product abundance [2]: 0.26
ACAGACGAAGGAGCCGCAAAGAAGTTATTAAGGGAAGAATAAGCCCTCAATATAAATATCTCTCACTTATTTAAA | 0.823 | 0.433 | 
ACAGACGAAGGAGCCGCAAAGAAGTTACTAAGGTATGAATAATCCCTCAATATAAATATCTCTCACTTATTTAAA | 0.15 | 0.103 | cleaved RNA product abundance [4]: 0.0813
CGACATGTCCCGCTTCTTTCATTAATCCGTTACCAACTGATTTGCTATATACATTTACCTTTTAAGAGGAGGAAT |  |  | cleaved RNA product abundance [2]: 0.205
ACAGACGAAGGAGCCGCAAAGAAGTTATTAAAGGATGAATAATCCCTCAATATAAATACCTCTCACTTATTTAAA | 0.13 |  | 
CGACATGTCCCGCTTCTTTCATTAATCCGTTAGCAACTGTTTTGCTTTATAGATTTACCTTTTAAGAGGAGGAAT |  |  | cleaved RNA product abundance [2]: 0.649
CGACATGTCCCGCTTCTTTCATTATTCCGTTAGCAAATGTTGTGCTATATACATTTACCTTTTAAGAGGAGGAAT |  |  | cleaved RNA product abundance [2]: 0.444
ACAGACGAAGGAGCCGCAAAGAAGTAATTAAGAGATAAATAATCCCTCAATATAAATATCTCTCACTTATTTAAA | 0.123 |  | 
ACAGACGAAGGAGCCGCAAAGAATTTATTAAGGGGTGAATAATCCCTCAATATAAATATCTCTCACTTATTTAAA | 0.526 |  | 
ACAGACGAAGGAGCCGCAAAGAAGTTATTATGGGATGAATAATCCCTCATTATAAATATCTCTCACTTATTTAAA | 0.528 |  | 
ACAGACGAAGGAGCCGCAAAGAAGATATTAAGGGATGAATAATCCCACAATATAAATATCTCTCACTTATTTAAA | 0.311 |  | 

Sequence | cleaved RNA product abundance [1] | cleaved RNA product abundance [3] | other results
ACAGACGAAGGAGCCGCAAAGAAGTTATTATGGGATGAATAATCCTTCAATATAAATATCTCTCACTTATTTAAA | 0.382 | 0.315 | 
ACAGACGAAGGAGCCGCAAAGAAGTTATTAAGGGTTGAACAATCCCTCAATATAAATATCTCTCACTTATTTAAA |  | 0.387 | 
ACAGACGAAGGAGCCGCAAAGTAGTTATTAAGGGATGAATAATCCCTTAATATAAATATCTCTCACTTATTTAAA |  | 0.869 | cleaved RNA product abundance [4]: 0.729
ACAGACGAAGGAGCCGCAAAGAAGTTATTAAGGGATCAATAATCCCTCAATATAAATATCTCTCACTTATTTAAA | 0.878 | 0.832 | cleaved RNA product abundance [4]: 0.996
ACAGACGAAGGAGCCGCAAAGAAGTTATTAAGGGATGAATAATCCCTCAATATAAATTATCTCTCACTTATTTAA | 0.975 |  | 
ACAGACGAAGGAGCCGCAAAGAAGTTATTAAGGGGTGAATAATCCCTAAATATAAATATCTCTCACTTATTTAAA | 0.554 |  | 
ACAGACGAAGGAGCCGCAAAGAAGTTATTCAGGGATGAATAATCCCTCAATATAAATAACTCTCACTTATTTAAA |  | 0.615 | 
CGACATGTCCCGCTTCTTTCATTAATCCGTTATCAACTGTTTTGCTATATATATTTACCTTTTAAGAGGAGGAAT |  |  | cleaved RNA product abundance [2]: 0.288
ACAGACGAAGGAGCCGCAAAGAAGTTATTTAGGGATGAATAATCCGTCAATATAAATATCTCTCACTTATTTAAA | 0.247 | 0.169 | 
ACAGACGAAGGAGCCGCAAAGCAGTTATTAAGGTATGAATAATCCCTCAATATAAATATCTCTCACTTATTTAAA | 0.0937 |  | 
CGACATGTCCCGCTTCTTTCATTACTCCGTTTACAACTGTTTTGCTATATACATTTACCTTTTAAGAGGAGGAAT |  |  | cleaved RNA product abundance [2]: 0.368
CGACATGTCCCGCTTCTTTCATTAATCTGTGAGCAACTGTTTTGCTATATACATTTACCTTTTAAGAGGAGGAAT |  |  | cleaved RNA product abundance [2]: 0.777
ACAGACGAAGGAGCCGCAAAGAAATTATTAAGGCATGAATAATCCCTCAATATAAATATCTCTCACTTATTTAAA | 0.122 | 0.109 | 
CGACATGTCCCGCTTCTTTCATTAATCCATTAGCAACTGTTTGGCTATATACATTTACCTTTTAAGAGGAGGAAT |  |  | cleaved RNA product abundance [2]: 0.386
ACAGACGAAGGAGCCGCAAAGAAGTTAATAAGGGATGAATAATCCCTCAATATACATATCTCTCACTTATTTAAA | 0.313 |  | 
ACAGACGAAGGAGCCGCAAAGAAGTTCTTAAGGGATGAAGAATCCCTCAATATAAATATCTCTCACTTATTTAAA |  | 0.14 | 
ACAGACGAAGGAGCCGCAAAGAAGTTATTAAGGGATGAATAAACCCTCACTATAAATATCTCTCACTTATTTAAA | 0.173 |  | 
ACAGACGAAGGAGCCGCAAAGAAGTTATTAAGGGATGAATACTCCCTCAAAATAAATATCTCTCACTTATTTAAA | 0.194 | 0.176 | 
ACAGACGAAGGAGCCGCAAAGAAGTTATTAAGGGATGAATAATCACTCAATATAAATACCTCTCACTTATTTAAA | 0.061 |  | 
ACAGACGAAGGAGCCGCAAAGAAGTTACTAAGGGATCAATAATCCCTCAATATAAATATCTCTCACTTATTTAAA | 0.208 |  | 
